# According to US7037703B2, “COD URACIL-DNA GLYCOSYLASE, GENE CODING THEREFORE, RECOMBINANT DNA CONTAINING SAID GENE OR OPERATIVE PARTS THEREOF, A METHOD FOR PREPARING SAID PROTEIN AND THE USE OF SAID PROTEIN OR SAID OPERATIVE PARTS THEREOF IN MONITORING OR CONTROLLING PCR” (Biotec Pharmacon ASA, priority 2000, dated 2006):
# Read-outs that look alike come from different tables or passages of the source.
# B1: rhUNG: purified recombinant mesophilic human UNG (UNGΔ84) provided by Dr. Krokan (protein, UniProt P13051 85-304, looked up, fragment)
# chain: LAARNVPVGFGESWKKHLSGEFGKPYFIKLMGFVAEERKHYTVYPPPHQVFTWTQMCDIKDVKVVILGQDPYHGPNQAHGLCFSVQRPVPPPPSLENIYKELSTDIEDFVHPGHGDLSGWAKQGVLLLNAVLTVRAHQANSHKERGWEQFTDAVVSWLNQNSNGLVFLLWGSYAQKKGSAIDRKRHHVLQTAHPSPLSVYRGFFGCRHFSKTNELLQKSG
# B2: E. coli UNG: commercially available UNG (or UDG) from Escherichia coli used in carry-over prevention (protein, UniProt P12295 2-229, looked up)
# Uracil-DNA glycosylase: ANELTWHDVLAEEKQQPYFLNTLQTVASERQSGVTIYPPQKDVFNAFRFTELGDVKVVILGQDPYHGPGQAHGLAFSVRPGIAIPPSLLNMYKELENTIPGFTRPNHGYLESWARQGVLLLNTVLTVRAGQAHSHASLGWETFTDKVISLINQHREGVVFLLWGSHAQKKGAIIDKQRHHVLKAPHPSPLSAHRGFFGCNHFVLANQWLEQRGETPIDWMPVLPAESE
# B3: Ugi: Bacillus subtilis bacteriophage PBS2 UDG-inhibitor, obtained from New England Biolabs (protein)
# chain: MTNLSDIIEKETGKQLVIQESILMLPEEVEEVIGNKPESDILVHTAYDESTDENVMLLTSDAPEYKPWALVIQDSNGENKIKML
# Experiments:
# [1] = test system: cUNG (Atlantic cod uracil-DNA glycosylase); experiment: Product inhibition of cUNG with free uracil; type: biochemical, Atlantic cod (Gadus morhua)
# Experimental: Different concentrations of uracil was added to the assay mixture and the assay performed as described in material and methods. Uracil-DNA glycosylase activity was measured in a final volume of 20 μl, containing 70 mM Tris/HCl, 10 mM NaCl, 1 mM EDTA, 100 μg/ml BSA and 230 ng nick-substrate or 71 ng PCR-substrate. The reaction mixture was incubated 10 min at 37° C., and terminated with the addition of 20 μl of ice cold single stranded calf thymus DNA (1 mg/ml) and 500 μl 10% (w/v) TCA. Samples were incubated on ice for 15 min, and centrifuged at 16,000 g for 10 min. Supernatants with acid soluble ^3H-uracil were analyzed using a liquid scintillation counter. Activity measurements using PCR-substrate were performed with 6.65×10^−4 U of purified cUNG. Various concentrations of uracil (0, 1, 2 and 5 mM) or Ugi-inhibitor (1.25×10^3 U to 2.00×10^2 U) were added to the assay mixtures (on ice). Activity was then measured as described under standard assay conditions.
# [2] = test system: PCR generated uracil-containing DNA substrate; conditions: literature value (64); cited from earlier work
# [3] = Effect of temperature on stability (half-life of UNG activity); type: physicochemical
# Experimental: Enzyme (1 U) were incubated at 50° C., 37° C., 25° C. and 4° C., and 5 μl aliquotes were transferred to the assay mixture after different time intervals, and standard assays were performed as described in material and methods. Half-lifes were determined to 0.5 min (50° C.), 20 min (37° C.), 60 min (25° C.) and 2 h (4° C.) for cUNG and 8 min (50° C.) 30 min (37° C.), 150 min (25° C.) and 2.6 h (4° C.) for rhUNG.
# (§1) Assays were done in a volume of 20 μl as described in standard assay using the PCR generated substrate. The assay mixtures were as described in standard assay conditions and were adjusted to pH 8.0 for all temperatures. The temperature range used was 5° C. to 60° C. The activity was measured in a sequential manner with 15 min intervals, between each temperature. The enzymes used were diluted in standard dilution buffer (5 mM Tris/HCl, 10 mM NaCl, 1% (v/v) glycerol, pH 8.0) and placed on ice.
# Temperature: UNG (0.01 U) was preincubated (in a total volume of 75 μl) in 10 mM Tris/HCl, 50 mM NaCl, 1 mM EDTA, 1% glycerol, pH 8.0 (adjusted at each temperature).
# [4] = Effect of pH on stability (residual UNG activity); type: physicochemical
# Experimental: In the different pH-buffer, 1 U of cUNG (Δ) or rhUNG (□) were incubated for 10 minutes at 37° C. Then 5 μl aliquotes were transfered to the assay mixture, and residual activity was measured using standard assay conditions as described in materials and methods. One hundred percent activity was measured directly from a sample diluted at pH 8.0 without any incubation step.
# pH: UNG (0.01 U) was preincubated (in a total volume of 75 μl) for 10 min at 37° in buffers containing 10 mM buffer, 10 mM NaCl, 1 mM EDTA, 1% glycerol, with pH ranging from 9.5-6.5 with 0.5 pH unit intervals using diethanolamine/HCl (9.5-8.5), Tris/HCl (8.5-7.5), MOPS/NaOH (7.5-6.5) and MES/NaOH (6.5-5.5) as buffer components. Aliquots of 5 μl were transferred to the assay mixtures and residual activity was measured using standard assay conditions.
# [5] = test system: PCR generated uracil-containing DNA substrate; experiment: Determination of temperature optimum / temperature profile; type: biochemical
# Experimental: Due to prolonged incubation of the enzyme sample on ice during the experiment, activity is corrected with respect to the stability of the enzyme, as described in material and methods.
# Enzyme activity was measured as described in material and methods. The percent UNG activity is set relative to the highest value for cUNG (45° C.) and rhUNG (50° C.) respectively. Due to prolonged incubation of the enzyme samples on ice during the experiment, activity is corrected with respect to the stability of the enzymes, as described in material and methods.
# as §1
# [6] = cited from earlier work; for half-life: literature (45)
# [7] = test system: cUNG (Atlantic cod uracil-DNA glycosylase); experiment: Inhibition of cUNG with uracil-DNA glycosylase inhibitor (Ugi); type: biochemical, Atlantic cod (Gadus morhua); conditions: 6.65×10^−4 U cUNG, 1.25×10^3 U to 2.00×10^2 U Ugi
# Experimental: 6.65×10^−4 U of cUNG was incubated with 1.25×10^3 U to 2.00×10^2 U of Ugi using standard assay conditions, as described in material and methods. One Unit of Ugi inhibit one Unit of UNG-activity, where the UNG-activty is defined as releasing 60 pmol of uracil per min at 37° C.
# Uracil-DNA glycosylase activity was measured in a final volume of 20 μl, containing 70 mM Tris/HCl, 10 mM NaCl, 1 mM EDTA, 100 μg/ml BSA and 230 ng nick-substrate or 71 ng PCR-substrate. The reaction mixture was incubated 10 min at 37° C., and terminated with the addition of 20 μl of ice cold single stranded calf thymus DNA (1 mg/ml) and 500 μl 10% (w/v) TCA. Samples were incubated on ice for 15 min, and centrifuged at 16,000 g for 10 min. Supernatants with acid soluble ^3H-uracil were analyzed using a liquid scintillation counter.
# Activity measurements using PCR-substrate were performed with 6.65×10^−4 U of purified cUNG. Various concentrations of uracil (0, 1, 2 and 5 mM) or Ugi-inhibitor (1.25×10^3 U to 2.00×10^2 U) were added to the assay mixtures (on ice). Activity was then measured as described under standard assay conditions.
# Target sequence in this assay (as listed by the source): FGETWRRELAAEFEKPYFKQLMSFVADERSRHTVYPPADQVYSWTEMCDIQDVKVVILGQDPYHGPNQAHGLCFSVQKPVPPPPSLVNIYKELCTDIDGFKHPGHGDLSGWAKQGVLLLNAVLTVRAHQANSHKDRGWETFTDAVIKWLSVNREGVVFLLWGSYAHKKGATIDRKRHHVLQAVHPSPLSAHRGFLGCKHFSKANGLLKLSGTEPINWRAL
molecule,measurement,setting,value
O=c1cc[nH]c(=O)[nH]1 [uracil],inhibition of cUNG activity,[1]; 1 mM uracil in the assay mixture,more than 50%
same,inhibition of cUNG activity,[1]; 5 mM free uracil in the assay mixture,78%
B1,temperature optimum,[2],45 °C
same,half-life,"[3]; 4° C., pH 8.0",156 min
same,half-life,"[3]; 25° C., pH 8.0",150 min
same,half-life,"[3]; 37° C., pH 8.0",30 min
same,half-life,"[3]; 50° C., pH 8.0",8 min
same,half-life,[3]; enzyme in standard dilution buffer on ice,156 min
same,residual activity,"[4]; pH 10.0, 10 min at 37° C.",66%
same,pH range in which most stable,[4]; preincubated 10 min at 37° C.,7.0-9.5
same,temperature of highest activity value in temperature profile,"[5]; FIG. 6, 5-60° C.",50 °C
same,relative activity compared with cUNG,[5]; temperatures higher than 45° C.,higher relative activity
B2,half-life,[6]; 40° C.,27 min
same,half-life,[6]; 45° C.,8 min
same,inactivation by heat treatment / reactivation,"[6]; literature (60), (45)",not completely inactivated
B3,effect of Ugi on cUNG activity,[7],clearly inhibited
